For data set [1], the system named is injured skin and cartilage. Details: species or system rats. Particulars: rat, in vivo. The procedure: In an experiment it was investigated whether the administration of AF-16 affected the healing process of injured skin and cartilage, using freeze-thaw injury to a rat ear as a model system. […] In addition 1 mg AF-16 was injected intramuscularly just after the implantation of the pump. Thereafter, a freeze-thaw injury was applied by compressing the ear in a standardized manner with the aid of a Pean's forceps, chilled in liquid nitrogen. For comparison, additional rats were treated in the same way in parallel were treated with the vehicle, PBS with 15% ethanol, only and no peptide. Additionally, normal rats, which had not been exposed to any freeze-thaw injury, were used for reference as were non-injured rats having pumps with AF-16 implanted. […] On either side bordering the injured elastic cartilage in the ear there was a formation of new hyaline cartilage. […] The amount of collagen and density of inflammatory cells were reduced in the AF-16 treated animals as compared to those having had the vehicle.

The test system of a further data set is aquaporins. In words: Effects of AF treatment on aquaporins after trauma, infections and other pathological conditions. It is filed as in vivo. Particulars: topical or systemic administration. An excerpt: Aquaporins are a family of proteins, integrated in membranes, and expressed in all living cells and organisms. The major function of aquaporins is to control the water flow into and out of cells, i.e. between the cytoplasm of cells and the extracellular environment. Each type of cells, tissues and organs have their specific set of aquaporins with characteristic distribution patterns. Functional aquaporins are preferentially clustered in lipid rafts and caveolae, while subunits and dissociated aquaporin complexes may be demonstrable outside these membrane constituents. […] Further, at brain and spinal cord infections, e.g. encephalitis, the patterns of distribution and intensity of these two aquaporins became altered, as disclosed be immunohistochemistry and immunochemistry. The interaction between e.g. neurons and supporting glial cells and vascular structures seems to be intricate and complex, but important.
Experiments are performed mapping in more detail regarding effects of trauma, infections and other pathological conditions. […] Effects are characterized quantitatively and qualitatively and the importance of effects on the structure and functions of the different types of aquaporins in a body. […]

Another data set deals with injured skin and periost. The data set can be described thus: Healing of calvarial skin wound and periost in rabbits. The format is in vivo, New Zeeland albino rabbits. Conditions: vs vehicle. The procedure: Adult rabbits were investigated with regard to whether the administration of AF-16 affected the healing process of injured skin and periost. […] The rabbits had either AF-16 or the vehicle injected intravenously in a marginal ear vein. The dose of AF-16 was up to 5 mg per kg body weight, twice daily. The calvarial skin wound and the injection sites in the ear were investigated macroscopically after a week. Then, specimens were dissected from both areas and prepared by fixation, embedding, sectioning and staining for light microscopic examination.

The next data set has as its system pulmonary hypertension. In words: Crotaline (monocrotaline) induced pulmonary hypertension in rats. It is filed as in vivo, Sprague-Dawley rats. Conditions: crotaline 60 mg/kg ip; minipump infusion; assessed 18 days later; vs untreated normal controls. The procedure:
Adolescent and adult rats, with a body weight of 150-300 g and of either sex, were treated experimentally to induce pulmonary hypertension and reactive alterations in the lungs. Pulmonary hypertension (PH) is defined as having a pressure in excess of the normal pulmonary artery pressure, […], usually in the range of 30-40 mm Hg. It is a progressive disease with high morbidity and mortality in humans as well as in animals. Experimental models enable investigation of the initiating mechanisms. A single treatment of rats with monocrotaline is an established approach for the induction of PH (Cf. Mathew et al., 2004). […]
The rats were anaesthetized 18 days later, and their body weights determined. […] The pressure in the right heart ventricle was assessed with the aid of a fiber optic miniature transducer system (Samba System 3200 & Samba Preclin 420 sensor; Samba Sensors AB, V. Frolunda, Sweden), inserted through the right jugular vein. […] In contrast, rats treated with crotaline (single ip injection; 60 mg/kg body weight; crotaline dissolved in PBS) and the vehicle delivered by a Alzet pump had for 18 days an pulmonary artery pressure in excess of 30 mm Hg and a hypertrophy of the right ventricle, as assessed by comparing its wet weight to that of the left ventricle and with the weight of corresponding structures of non-treated, normal rats. […]

From patent US8487074B2, “Modulation of lipid rafts” (Lantmannen AS-Faktor AB, priority 2006, dated 2013) come the findings set out here.

No end group written: not given here.

With “VCHSKTRSNPENNVGL [AF-16, VCHSKTRSNPENNVGL]”, the “structures in the ear of non-injured rats” value in data set [1] is reported as “did not alter the structures in the ear”.

B1: AF: antisecretory factor, a 41 kDa protein comprising 382 amino acids; the term also covers homologues, derivatives and fragments (protein, listed as Homo sapiens)
chain: MVLESTMVCVDNSEYMRNGDFLPTRLQAQQDAVNIVCHSKTRSNPENNVGLITLANDCEVLTTLTPDTGRILSKLHTVQPKGKITFCTGIRVAHLALKHRQGKNHKMRIIAFVGSPVEDNEKDLVKLAKRLKKEKVNVDIINFGEEEVNTEKLTAFVNTLNGKDGTGSHLVTVPPGPSLADALISSPILAGEGGAMLGLGASDFEFGVDPSADPELALALRVSMEEQRHAGGGARRAARASAAEAGIATTGTEDSDDALLKMTISQQEFGRTGLPDLSSMTEEEQIAYAMQMSLQGAEFGQAESADIDASSAMDTSEPAKEEDDYDVMQDPEFLQSVLENLPGVDPNNEAIRNAMGSLPPRPPRTARRTRRRKTRSETGGKG
On to B1, for which the “prevalence, distribution and activity of aquaporins and ion channel complexes” value in the data set on aquaporins is “great impact in monitoring and even normalizing”. Further, the frequency of caveolae entry in the data set with injured skin and periost was “more normal”. In the data set on pulmonary hypertension, the “general appearance and body weight” value is “appeared healthy and had almost the same weight and appearance as the controls”.
